How the values were obtained:
[1] = test system: LLC (Lewis Lung Carcinoma); experiment: LLC tumor growth model; type: in vivo, mouse; settings: LLC in C57BL/6 mice; 10 mg/kg intraperitoneal three times a week; control Fc of IgG1
Procedure: To see the tumor growth inhibitory effects of Ang2 antibody, a […] Xenograft model using a LLC (Lewis Lung Carcinoma) was employed.
LLC cells (ATCC) were cultured using 10% FBS (Gibco)-supplemented DMEM (Gibco) media. 1×10^6 of LLC cells were re-suspended in 100 ul of PBS (Gibco) and then subcutaneously injected into 6˜8-week-old C57BL/6 mice (Jackson Laboratory) anesthetized with 1˜2% isoflurane.
When the size of tumors reached 50˜100 mm^3, anti-Ang2 antibody (10D6) was injected at the concentration of 10 mg/kg via an intraperitoneal injection three times a week and the size of the tumors was measured.
The size of tumor (V) was calculated using the following formula: Volume (V)=(width)2×length/2
For comparison, the same experiment was performed to a control group treated with Fc of IgG1 and a comparative group treated with antibody 4H10 (refer to Example 3).

Ang2-Tie2 binding = target: T1, Ang2-Tie2 binding (Homo sapiens, UniProt O15123); experiment: Ang2-Tie2 binding competition ELISA; settings: antibody 400 nM to 0.001 nM; 400 ng/ml FLAG-tagged hAng2; hTie2-Fc coated plate
T1 construct: purchased R&D Systems (hTie2-Fc)
T1 sequence (O15123 19-496): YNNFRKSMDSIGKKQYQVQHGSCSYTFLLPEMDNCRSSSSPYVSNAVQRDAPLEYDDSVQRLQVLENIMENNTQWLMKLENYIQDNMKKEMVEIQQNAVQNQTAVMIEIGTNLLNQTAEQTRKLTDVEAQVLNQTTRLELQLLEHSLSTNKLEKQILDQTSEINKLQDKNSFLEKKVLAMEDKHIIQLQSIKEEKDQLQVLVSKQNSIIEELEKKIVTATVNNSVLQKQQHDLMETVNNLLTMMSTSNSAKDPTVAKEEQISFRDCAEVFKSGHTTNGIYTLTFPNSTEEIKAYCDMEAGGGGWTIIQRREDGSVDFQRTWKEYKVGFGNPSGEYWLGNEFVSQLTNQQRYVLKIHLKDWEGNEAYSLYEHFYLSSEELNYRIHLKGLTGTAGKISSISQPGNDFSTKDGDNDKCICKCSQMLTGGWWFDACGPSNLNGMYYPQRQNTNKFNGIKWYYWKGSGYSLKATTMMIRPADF
Procedure: Ang2-Tie2 binding competition ELISA was conducted using the antibody binding to Ang2 prepared in Example 2-1 above.
More specifically, MaxiSorp™ flat-bottom plate (Nunc) of 96-well was coated with hTie2-Fc (R&D Systems) which is a protein bound with 4 ug (microgram)/ml of Fc of human IgG1. After that, the plate was washed five times with 0.05% (v/v) Tween-20-containing PBS (phosphate buffer saline) and then blocked with 1% (v/v) BSA (bovine serum albumin; Sigma)-containing PBS at a room temperature for 2 hour.
For Ang2:Tie2 competition ELISA, each anti-Ang2 antibody obtained in Example 2 was placed at various concentrations of 400 nM to 0.001 nM into each well coated with the hTie-2/Fc fusion protein along with 1% (v/v) BSA and 400 ng/ml of a FLAG-tagged hAng2 and then, the plate was allowed to react at a room temperature for 2 hours and washed five times with PBST. […] Lastly, 100 ul (microliter) of TMB substrate (Cell Signaling) was added to each well of the plate to induce color development for 3 min. and then, the reaction was ceased by the addition of 100 ul of Stop solution (Cell Signaling) and OD450 values were measured on a plate reader (Molecular Devices). […]

LLC tumor = experiment: Co-administration of anti-Ang2 antibody and cisplatin in LLC lung cancer animal model; type: in vivo, mouse; settings: LLC mice; antibody 10 mg/kg i.p. every three days, five times; cisplatin 3 mg/kg i.p. once; control Fc of IgG1
Procedure: The synergistic effect of co-treatment of antibody 10D6 and cisplatin was examined.
In particular, referring to Example 14, LLC tumor cells were subcutaneously injected into mice. When the size of tumors reached 50˜100 mm^3, anti-Ang2 antibody 10D6 was injected at the concentration of 10 mg/kg via an intraperitoneal injection every three days a total of five times. After administering antibody 10D6 twice, 3 mg/kg of cisplatin (Sigma-Aldrich) was intraperitoneally injected once. The size of tumor (V) was calculated using the following formula: Volume (V)=(width)2×length/2
For comparison, the same experiment was performed to a control group treated with Fc of IgG1 and a comparative group treated with antibody 4H10.
In addition, an experiment was performed to examine whether the synergistic effect obtained by co-administration of 10D6 and cisplatin as described above is due to the increased transporting efficiency of the administered cisplatin induced by the vascular normalization by treatment of 10D6. Cisplatin binds to DNA in a living body and induces crosslinking, thereby inducing cell death. Rat monoclonal anti-Cisplatin modified DNA (CP9/19) antibody (1:200, Abcam), which is capable of binding to DNA modified by cisplatin in tumor frozen sections, and hamster anti-CD31 antibody (1:200, Millipore), were used for immunofluorescence staining, and fluorescence images were obtained using LSM5 confocal microscope (Zeiss). In addition, to examine necrotic region, the tumor frozen sections were stained with H&E according to standard protocol, and then, Eosin+ cell region in tumor was observed. The obtained results are illustrated in FIG. 18C.

- inhibition of Ang2-Tie2 binding (Ang2-Tie2 binding): inhibiting Ang2-Tie2 binding
B1: 4H10: anti-Ang2 antibody inhibiting Ang2-Tie2 binding; heavy chain variable region SEQ ID NO: 12, light chain variable region SEQ ID NO: 13 (antibody, V domains shown)
VH: EVQLLESGGGLVQPGGSLRLSCAASGFTFSSYDMSWVRQAPGKGLEWVSLISPDSSSIYYADSVKGRFTISRDNSKNTLYLQMNSLRAEDTAVYYCAKDLISFWRGGFDYWGQGTLVTVSS
VL: QSVLTQPPSASGTPGQRVTISCSGSSSNIGSNYVNWYQQLPGTAPKLLIYADSNRPSGVPDRFSGSKSGTSASLAISGLRSEDEADYYCGSWDYSLSGYVFGGGTKLTVLG
modifications: Synthetic (heavy chain variable region of 4H10); Synthetic (light chain variable region of 4H10)
- inhibition of growth of the tumor compared to the control group [1]: about 27%
- tumor size decreased by, compared to the control (LLC tumor): 29.2%

Reference: patent US9505841B2, “Use of an anti-Ang2 antibody” (Samsung Electronics Co., Ltd., priority 2013, dated 2016)
